Measured values as given in article PMC4678854.

Legend:
Experiment in all cases: EMSA
TnsE E522K+D523N = target: T1, TnsE E522K+D523N (Escherichia coli (transposon Tn7), UniProt P05845 1-538, E522K;D523N)
T1 sequence: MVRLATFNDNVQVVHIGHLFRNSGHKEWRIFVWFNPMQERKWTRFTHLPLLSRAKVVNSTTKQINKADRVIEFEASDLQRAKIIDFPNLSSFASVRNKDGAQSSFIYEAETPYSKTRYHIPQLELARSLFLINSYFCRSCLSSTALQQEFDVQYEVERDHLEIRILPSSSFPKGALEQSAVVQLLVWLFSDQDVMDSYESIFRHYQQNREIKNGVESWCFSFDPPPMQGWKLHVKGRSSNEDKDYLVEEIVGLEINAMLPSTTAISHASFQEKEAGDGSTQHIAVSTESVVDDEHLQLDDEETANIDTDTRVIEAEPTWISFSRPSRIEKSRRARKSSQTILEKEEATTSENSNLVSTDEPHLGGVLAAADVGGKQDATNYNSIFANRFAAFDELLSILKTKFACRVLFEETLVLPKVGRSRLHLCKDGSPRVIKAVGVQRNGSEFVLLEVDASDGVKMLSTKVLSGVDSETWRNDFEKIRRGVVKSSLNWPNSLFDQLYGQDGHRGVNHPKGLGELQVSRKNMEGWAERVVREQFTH

TnsE G483R = target: T2, TnsE G483R (Escherichia coli (transposon Tn7), UniProt P05845 1-538, G483R)
T2 sequence: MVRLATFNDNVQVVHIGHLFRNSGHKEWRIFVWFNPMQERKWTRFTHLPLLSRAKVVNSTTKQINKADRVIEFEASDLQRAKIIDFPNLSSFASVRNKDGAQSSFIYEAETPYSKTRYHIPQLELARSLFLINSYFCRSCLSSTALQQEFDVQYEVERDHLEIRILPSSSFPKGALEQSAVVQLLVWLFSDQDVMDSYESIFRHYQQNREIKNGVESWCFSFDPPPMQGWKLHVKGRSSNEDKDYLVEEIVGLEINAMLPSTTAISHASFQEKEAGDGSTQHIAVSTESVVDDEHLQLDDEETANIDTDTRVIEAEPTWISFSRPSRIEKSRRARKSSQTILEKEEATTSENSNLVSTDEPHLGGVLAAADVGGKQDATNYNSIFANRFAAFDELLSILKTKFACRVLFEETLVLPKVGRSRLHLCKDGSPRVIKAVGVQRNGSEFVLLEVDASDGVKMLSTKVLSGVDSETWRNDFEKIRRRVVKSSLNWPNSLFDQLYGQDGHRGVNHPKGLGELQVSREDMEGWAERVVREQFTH

TnsE D523N = target: T3, TnsE D523N (Escherichia coli (transposon Tn7), UniProt P05845 1-538, D523N)
T3 sequence: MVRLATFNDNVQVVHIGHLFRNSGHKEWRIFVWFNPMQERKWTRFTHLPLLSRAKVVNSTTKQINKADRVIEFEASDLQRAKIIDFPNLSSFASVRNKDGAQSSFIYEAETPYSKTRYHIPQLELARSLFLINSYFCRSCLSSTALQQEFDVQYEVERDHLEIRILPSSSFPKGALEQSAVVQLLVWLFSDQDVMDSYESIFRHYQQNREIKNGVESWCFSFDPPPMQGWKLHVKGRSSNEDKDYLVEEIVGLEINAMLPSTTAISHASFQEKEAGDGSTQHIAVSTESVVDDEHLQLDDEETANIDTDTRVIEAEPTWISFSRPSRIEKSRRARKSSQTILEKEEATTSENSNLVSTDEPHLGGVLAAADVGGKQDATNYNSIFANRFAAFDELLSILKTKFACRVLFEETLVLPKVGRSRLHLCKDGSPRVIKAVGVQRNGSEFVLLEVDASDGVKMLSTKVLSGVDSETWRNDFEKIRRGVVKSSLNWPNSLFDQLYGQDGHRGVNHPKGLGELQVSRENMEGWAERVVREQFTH

TnsE E516K = target: T4, TnsE E516K (Escherichia coli (transposon Tn7), UniProt P05845 1-538, E516K)
T4 sequence: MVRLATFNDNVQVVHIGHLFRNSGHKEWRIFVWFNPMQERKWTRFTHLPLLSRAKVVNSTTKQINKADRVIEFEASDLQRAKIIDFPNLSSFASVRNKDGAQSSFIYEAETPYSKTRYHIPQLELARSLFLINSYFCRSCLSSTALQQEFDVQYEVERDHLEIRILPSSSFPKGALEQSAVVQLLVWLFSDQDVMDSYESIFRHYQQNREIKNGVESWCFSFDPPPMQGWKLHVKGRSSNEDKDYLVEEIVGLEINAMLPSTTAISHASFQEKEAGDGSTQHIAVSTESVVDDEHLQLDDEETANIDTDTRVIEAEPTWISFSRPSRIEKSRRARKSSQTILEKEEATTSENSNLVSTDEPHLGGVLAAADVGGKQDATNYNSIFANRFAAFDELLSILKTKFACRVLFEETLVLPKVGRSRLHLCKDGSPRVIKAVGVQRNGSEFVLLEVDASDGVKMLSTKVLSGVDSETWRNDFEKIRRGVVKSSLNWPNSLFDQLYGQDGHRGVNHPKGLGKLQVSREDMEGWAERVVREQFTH

TnsE A453V = target: T5, TnsE A453V (Escherichia coli (transposon Tn7), UniProt P05845 1-538, A453V)
T5 sequence: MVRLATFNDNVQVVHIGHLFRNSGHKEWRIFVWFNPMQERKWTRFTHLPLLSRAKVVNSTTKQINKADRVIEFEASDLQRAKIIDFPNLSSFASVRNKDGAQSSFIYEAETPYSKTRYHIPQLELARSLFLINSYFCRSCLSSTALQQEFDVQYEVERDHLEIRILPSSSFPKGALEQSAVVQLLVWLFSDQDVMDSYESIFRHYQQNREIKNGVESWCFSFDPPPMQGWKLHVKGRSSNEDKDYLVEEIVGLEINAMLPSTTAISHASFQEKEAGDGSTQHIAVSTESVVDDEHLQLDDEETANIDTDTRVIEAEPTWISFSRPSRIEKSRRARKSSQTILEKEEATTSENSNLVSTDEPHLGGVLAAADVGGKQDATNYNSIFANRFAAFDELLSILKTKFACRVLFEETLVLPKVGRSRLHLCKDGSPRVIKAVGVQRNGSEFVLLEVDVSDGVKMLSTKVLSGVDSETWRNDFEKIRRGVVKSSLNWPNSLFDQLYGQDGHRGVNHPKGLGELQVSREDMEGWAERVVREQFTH

TnsE E522K = target: T6, TnsE E522K (Escherichia coli (transposon Tn7), UniProt P05845 1-538, E522K)
T6 sequence: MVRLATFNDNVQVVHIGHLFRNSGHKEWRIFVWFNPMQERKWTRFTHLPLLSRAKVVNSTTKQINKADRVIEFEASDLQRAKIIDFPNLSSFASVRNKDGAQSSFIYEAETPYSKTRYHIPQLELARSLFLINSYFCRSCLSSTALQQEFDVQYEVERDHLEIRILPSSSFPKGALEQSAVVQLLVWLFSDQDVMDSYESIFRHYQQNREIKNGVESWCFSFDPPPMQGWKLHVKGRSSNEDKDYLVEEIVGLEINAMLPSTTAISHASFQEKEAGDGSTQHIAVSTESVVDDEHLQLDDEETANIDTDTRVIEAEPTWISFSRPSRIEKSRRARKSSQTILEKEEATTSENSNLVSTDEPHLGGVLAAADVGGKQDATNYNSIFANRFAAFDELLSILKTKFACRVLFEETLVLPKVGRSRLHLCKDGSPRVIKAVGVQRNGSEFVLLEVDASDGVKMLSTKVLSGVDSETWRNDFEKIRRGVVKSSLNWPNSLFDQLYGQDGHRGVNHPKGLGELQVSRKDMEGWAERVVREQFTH

TnsE G515R = target: T7, TnsE G515R (Escherichia coli (transposon Tn7), UniProt P05845 1-538, G515R)
T7 sequence: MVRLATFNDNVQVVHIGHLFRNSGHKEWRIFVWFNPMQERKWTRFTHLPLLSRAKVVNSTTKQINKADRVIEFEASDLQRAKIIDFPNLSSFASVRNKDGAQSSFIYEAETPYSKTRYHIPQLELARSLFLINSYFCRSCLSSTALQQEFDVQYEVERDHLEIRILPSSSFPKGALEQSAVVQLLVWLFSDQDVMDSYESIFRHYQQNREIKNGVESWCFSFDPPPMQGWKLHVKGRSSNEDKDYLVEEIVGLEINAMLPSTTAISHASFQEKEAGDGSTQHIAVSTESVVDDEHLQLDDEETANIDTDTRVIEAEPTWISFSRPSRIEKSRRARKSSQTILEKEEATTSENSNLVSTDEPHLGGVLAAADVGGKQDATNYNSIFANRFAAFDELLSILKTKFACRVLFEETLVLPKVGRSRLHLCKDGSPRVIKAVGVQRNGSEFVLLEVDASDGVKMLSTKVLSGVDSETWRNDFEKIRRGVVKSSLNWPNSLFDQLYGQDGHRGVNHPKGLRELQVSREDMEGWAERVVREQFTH

TnsE wild-type = target: T8, TnsE wild-type (Escherichia coli (transposon Tn7), UniProt P05845 1-538)
T8 sequence: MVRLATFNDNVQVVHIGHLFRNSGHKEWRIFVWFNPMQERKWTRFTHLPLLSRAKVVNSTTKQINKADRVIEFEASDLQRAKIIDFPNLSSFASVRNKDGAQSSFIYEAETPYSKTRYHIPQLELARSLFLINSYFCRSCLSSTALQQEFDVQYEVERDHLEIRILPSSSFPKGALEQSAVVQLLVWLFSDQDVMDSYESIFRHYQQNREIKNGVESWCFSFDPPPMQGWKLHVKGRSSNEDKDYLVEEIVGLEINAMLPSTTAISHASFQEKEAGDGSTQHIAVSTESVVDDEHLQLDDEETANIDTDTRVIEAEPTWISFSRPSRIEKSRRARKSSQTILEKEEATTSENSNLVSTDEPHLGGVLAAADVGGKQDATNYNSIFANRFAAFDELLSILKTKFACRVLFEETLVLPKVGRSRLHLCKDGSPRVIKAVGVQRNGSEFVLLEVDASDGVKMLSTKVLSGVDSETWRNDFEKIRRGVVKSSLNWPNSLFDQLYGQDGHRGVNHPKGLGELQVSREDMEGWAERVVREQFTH

Measured: binding result

B1: 3' recessed-end DNA substrate (mixed)
DNA 1: CCATTAGCAAGGCCGGAAACGTCACCAATGCAACGATCAGCCAACTAAACTAGGACATCTTTGCC
DNA 2: GGCAAAGATGTCCTAGTTTAGTTGGCTGAT
binds: all assays above
